Measurements as given in patent publication US9383360B2, “Compositions and methods relating to lyme disease” (The United States of America, as represented by the …, priority 2012, dated 2016).

Assays:
Aggrecan = assay: BbHtrA proteolysis assay, aggrecan substrate; assay type: biochemical, bovine, human; settings: SDS-PAGE, silver stain, FIG. 4A
Procedure: For proteolysis assays described in Examples herein, purified protein substrates (200-600 nM) and proteases (100-150 nM) were diluted in assay buffer (50 mM HEPES, pH 7.4, 5 mM CaCl2) and incubated overnight at 37° C. Samples were boiled for 4 minutes to inactivate the proteases. Proteoglycans were deglycosylated by overnight incubation at 37° C. with 0.01 U chondroitinase ABC (Seikagaku). Reactions were stopped by the addition of SDS/PAGE sample buffer, boiled for 4 minutes, and electrophoresed on pre-cast Tris-glycine gels (BioRad). Reaction products were visualized by silver staining.
BbHtrA cleaved recombinant human aggrecan (G1-IGD-G2 domains) within the IGD (FIG. 4A). Cleavage of recombinant aggrecan generated three high molecular weight proteolytic fragments which migrated at ˜110 kd, ˜60 kd and ˜50 kd.
BbHtrA also degraded native, fully glycosylated aggrecan (FIG. 4B, lane 5). Again, this degradation required BbHtrA catalytic activity (FIG. 4B, lane 6). The BbHtrA-generated aggrecan fragments appear to be a doublet, unlike those generated by HtrA1.
Purified proteins were incubated with BbHtrA or BbHtrA^S226A as described herein. HtrA (also known as DegP) proteases belong to the family of serine proteases which contain a highly reactive serine residue in their active site. This serine (Ser210 in DegP) is part of the canonical His-Ser-Asp catalytic triad and mutation of the catalytic serine abolishes proteolytic activity (Skorko-Glonek et al., 1995). In BbHtrA, residues His119, Ser226 and Asp149 form the catalytic triad and mutation of serine 226 to alanine abolished proteolytic activity as expected (FIG. 5).
Reaction products were separated by SDS-PAGE and silver stained. Native collagen II and recombinant tenascin C were not degraded by BbHtrA indicating selectivity for proteoglycans, E-cadherin and fibronectin. FIG. 5 is an image of SDS-PAGE analysis showing that BbHtrA degrades aggrecan, neurocan, versican, brevican, biglycan, decorin, E-cadherin, and casein.

[1] = system: chondrocyte aggregate cultures; assay: Chondrocyte cytokine induction assay (Proteome Profiler Cytokine Arrays); assay type: cell-based, human
Description: Chondrocyte aggregate cultures are used which form an extensive extracellular matrix with components characteristic of articular cartilage including aggrecan and type II collagen as described in Welter, J. et al, BioTechniques, 2007, 42(6):732-737; and Solchaga, L. A. et al., Chondrogenic Differentiation of Bone Marrow-Derived Mesenchymal Stem Cells: Tips and Tricks, 2011, 698:253-278.
To form the chondrocyte aggregate cultures, lx10^6 human mesenchymal stem cells (passage one, Lonza, catalog #PT-2501) were plated in a T150 flask (Corning) and cultured in growth media: mesenchymal stem cell basal media (MSCBM, Lonza, #PT-3238), mesenchymal growth supplements (SingleQuots, Lonza, #PT-4105), and 5 ng/ml recombinant human […] (Shenandoah Biotechnology). When confluent, cells were trypsin-released (0.5% trypsin EDTA, Gibco), expanded to two T150 flasks and fed with growth media every three days. When confluent, cells were harvested, resuspended in fresh growth media containing 5% DMSO and aliquots of 1×10^6 cells were cryopreserved in liquid nitrogen.
Human mesenchymal stem cells were used to promote chondrogenesis and chondrocyte aggregate formation for use in these studies. Two vials of passage three cryopreserved cells were thawed, plated in growth media in two T150 flasks and then expanded to six T150 flasks as above. Cells were harvested (0.5% trypsin EDTA, Gibco), pooled, enumerated and induced to chondrogenic differentiation as follows. Cells were resuspended in defined chondrocyte differentiation media: high glucose DMEM (Gibco), 50 μg/ml ascorbic acid-2-phosphate (Sigma), 39.3 ng/ml dexamethasone (Sigma), […] L-proline (Sigma), ITS+Premix (BD Biosciences), 10 ng/ml transforming growth factor β-3 (Shenandoah Biotechnology) and 30 μg/ml gentamicin sulfate+15 ng/ml amphotericin-B (GA-1000, Lonza, #PT-4504E). High density aggregates were obtained by plating, on average, 3×10^5 cells per well in a conical bottom 96 well plate (Thermo Scientific), pelleting by centrifugation (5 minutes at 600 g), and incubation at 37° C. and 5% CO2. Pellets formed coherent spherical aggregates by day two of culture. After seven days, wide bore tips were used to transfer aggregates to V-bottom 96 well plates (Corning). Aggregates were maintained in differentiation media at 37° C. and 5% CO2 for 3-5 weeks and fed every two days until experimentation.
For chondrocyte cytokine induction assays, 24 hours prior to experimentation, dexamethasone containing media was removed, aggregates were rinsed with DPBS (Gibco) and dexamethasone-free differentiation media was added. For experimentation, aggregates were transferred to 24 well plates (24 aggregates per condition), spent media was removed and fresh warmed dexamethasone-free media containing samples was added. Aggregates were then incubated at 37° C. and 5% CO2 for two days.
Recombinant BbHtrA or BbHtrA^S226A was added to culture medium and incubated with chondrocyte aggregate cultures. BbHtrA and BbHtrA^S226A were purified using an E. coli system and was expected to contain endotoxin which would have a stimulatory effect on the chondrocytes. To control for endotoxin contamination (lipopolysaccharide, LPS), an endotoxin removal kit (Noragen) was used to remove the bulk of LPS from recombinant BbHtrAs. The relative toxicity of the amount remaining in the BbHtrA and BbHtrA^S226A samples was determined by a chromogenic Limulus Amoebocyte Lysate (LAL) method (Lonza, Walkersville, Md.). Prior to addition to aggregates, LPS (44 ng, 200 EU), BbHtrA^WT (20 μg, 27.9 EU LPS) and BbHtrA^S226A ([…], 1.99 EU LPS) were incubated in 1 mg/ml polymyxin B sulfate (Sigma) on ice for 30 min with occasional mixing. Warmed dexamethasone-free medium was then added to each test condition to a final volume of 1 ml. Control aggregates were maintained in untreated medium also containing polymyxin B sulfate. The final concentration for all test conditions was 60 μg/ml polymyxin B sulfate. […]

[2] = spent medium of chondrocyte aggregates after 48 hours, cytokine array, background subtracted

B1: BbHtrA^S226A (protein)
chain: MEKKFFSGFLLSFLALSIGFFIGMHYLASNRSNIVFAEEKDNTVRALQDSFREVSKKILPSSVEVHATGVIKQSFPIPFFFFDMPEFDSERKSNWAGSGVIIGRDSQKKSLFYVVTNSHVVDKATELEVVSYDKKKHKAKLIGKDEKKDIALISFESDDATIKVADLGDSDKLEIGDWVMAVGSPFQFSFTVTAGIVSGLQRSANPNLQSRNLFIQTDAAINRGNAGGPLVNIKGEVIGINAWIASNSGGNIGLGFAIPVNNIKSTVDFFLKGKKIESAWLGISFYPLKTRDSEVLKSLGVESNDVSAAIIASLYPGSPAVKSGLRAGDIIMKVNGVSMSVFQDVTSYISDFYAGEKVNVEILRGNVKKNIEIVLAVRPKDKELSSSKMLPGFVVYPLVEDIKAQLNLRNWIKGVVVDYIDKNLASNIKMKSGDVILSVNSKSVSNLREFYDALEVGKNTYKILRGNDSFKITF
modifications: Mutant Borrelia burdorferi HtrA S226A
- Cleavage of recombinant human aggrecan (G1-IGD-G2 domains) within the IGD (Aggrecan): failed to generate these fragments
- Cytokines released by chondrocytes in response ([1]; additional experiments, FIG. 10: BbHtrA^WT, BbHtrA^S226A, LPS, medium alone): IL-8 and CXCL1
- GROα/CXCL1 pixel density, Mean [1, 2]: 0.647
- I-309/CCL1 pixel density, Mean [1, 2]: 0.163
- IL-6 pixel density, Mean [1, 2]: 0.309
- IL-8 pixel density, Mean [1, 2]: 1.187
- MCP-1/CCL2 pixel density, Mean [1, 2]: 0.050
- RANTES/CCL5 pixel density, Mean [1, 2]: 0.265
- sICAM-1/CD54 pixel density, Mean [1, 2]: 0.257
